Source: patent publication EP3265123B1 (Kymab Limited, dated 2022)
Values belong to the binder of their own block, whether it stands above or below them.

What was measured:
[1] = biological target: T1, Recombinant Human OX40L (Leader sequence, Isoleucine Zipper and FLAG Sequence Included) (human); test: cell-based or functional assay
[2] = biological target: T1, Recombinant Human OX40L (Leader …); test: HTRF ligand/receptor neutralisation, biotinylated hOX40L with OX40RFc-AF647 as competitor; mean of three experiments
[3] = biological target: T1, Recombinant Human OX40L (Leader …); test: SPR (ProteOn XPR36), antibody captured on anti-mouse IgG, OX40L at 256 nM, 1:1 model, apparent affinity, 25 C

T1 sequence (chain, as listed by the source limits assumed): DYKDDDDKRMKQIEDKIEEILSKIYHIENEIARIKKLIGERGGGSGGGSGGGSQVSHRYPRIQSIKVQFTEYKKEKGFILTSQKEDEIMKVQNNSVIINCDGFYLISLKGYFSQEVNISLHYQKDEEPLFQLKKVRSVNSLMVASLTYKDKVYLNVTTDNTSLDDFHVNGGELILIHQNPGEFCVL

Primary T-cell Assay IC50 (recombinant OX40L induced IL2 release from primary human T-cells) [1]: 0.81 nM
IC50 [2]: 0.75 nM
B1: 2D10 (human) (antibody, human IgG4 S228P, kappa, V domains shown)
VH: EVQLVESGGGLVQPGGSLRLSCAASGFTFSNYAMNWVRQAPGKGLEWVSTISGSGGATRYADSVKGRFTISRDNSRNTVYLQMNSLRVEDTAVFYCTKDRLIMATVRGPYYYGMDVWGQGTTVTVSS
VL: DIQMTQSPSSLSASVGDRVTITCRASQSISSYLNWYQQKPGKAPNLLIYAASSLQSGVPSRFSGSGSETDFTLTISSLQPEDFATYYCQQSHSVSFTFGPGTKVDIKR
notes: Fully human recombinant IgG4-PE (Ser228Pro, Leu235Glu) with human kappa light chain, expressed in CHO-S; also called 02D10; 2D10 IgG4PE

Kd [3]: 5.3 nM
B2: 9H04 (hybridoma) (antibody, V domains shown)
VH: QVQLVESGGGLVKPGGSLRLSCAASRFTLSDYYMTWIRQAPGKGLEWVSYISSSGNTIYYADSVKGRFTISRDNAKNSLYLQMNSLRAEDTAVYYCARDLSGSYWDYYYGMDVWGQGTTVTVSS
VL: AIQLTQSPSSLSTSVGDRVTIACRASQGINNALAWYQQKPGKAPKLLIYDASSLESGVPSRFSGSGSGTDFTLTISSLQPEDFATYYCQQFNSYPRTFGQGTKVEIK
notes: Purified from hybridoma supernatant as a murine/human chimeric antibody (human variable domains, mouse constant regions); also called 09H04

Kd [3]: 2.2 nM
B3: 19H01 (hybridoma) (antibody, V domains shown)
VH: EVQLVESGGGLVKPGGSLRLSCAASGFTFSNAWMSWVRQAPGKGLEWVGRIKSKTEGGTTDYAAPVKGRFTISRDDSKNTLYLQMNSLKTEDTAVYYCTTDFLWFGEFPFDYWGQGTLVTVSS
VL: DIQMTQSPSSLSASVGDRVTITCRASQGISNYLAWYQQKPGKIPKLLIYAASTLQSGVPSRFSGSGSGTDFTLTISSLQPEDVATYYCQKYNSAPRTFGQGTKVEIK
notes: Purified from hybridoma supernatant as a murine/human chimeric antibody (human variable domains, mouse constant regions)
